In the test the target is human adiponectin (ADPN) from egg white of OVA ADPN knock-in chickens (human) (UniProt Q15848). In words: non-reducing SDS-PAGE and Western blot; crude egg white of KI hens 0090 and 0141, diluted, in RIPA buffer and Laemmli sample buffer, 95°C 5 min, 10% gel, non-reducing; anti-adiponectin blot; under reducing conditions the multimer bands decreased and the monomer band increased. Background: A western blot detects proteins with antibodies after separation by electrophoresis.

Several values for one entry are separate records, joined by “and”; a condition that tells them apart may be missing. Equal entries are not always repeated.

The values below come from publication PMC9902655.

For orientation: stoichiometry N means the number of molecules, sites or subunits per partner or assembly.

As for “human adiponectin (ADPN) from egg white of OVA ADPN knock-in chickens (from UniProt Q15848 19-244) (natural protein)”, the stoichiometry N is 3 and 6.
